Positions count from the first letter of the chain named.
B1: LaG-16 (VHH)
VHH: QVQLVESGGRLVQAGDSLRLSCAASGRTFSTSAMAWFRQAPGREREFVAAITWTVGNTILGDSVKGRFTISRDRAKNTVDLQMDNLEPEDTAVYYCSARSRGYVLSVLRSVDSYDYWGQGTQVTVS
B2: LaG-9 (VHH)
VHH: DVQLVESGGGLVQAGGSLRLSCAASGRTFSTSAMGWFRQAPGKEREFVARITWSAGYTAYSDSVKGRFTISRDKAKNTVYLQMNSLKPEDTAVYYCASRSAGYSSSLTRREDYAYWGQGTQVTVS
B3: LaG-14 (VHH)
VHH: QVQLVESGGGLVQAGGSLRLSCAASGRTYSISAMGWFRQAPGKEREFVAGISRSGGTTYYADPVKGRFTISRDNAKNTVYLQMNSLKPEDTAVYYCAARARGWTTFPAREIEYDYWGQGTQVTV
B4: LaG-43 (VHH)
VHH: DVQLVESGGGLVQPGGSLRLSCEASGGAFSTVAMGWFRQAPGKEREFVGAITWTAGSTYYADSAKGRFTISRDNAKNTVHLQMNSLKPEDTAVYYCAQRVRGFFGPLRTTPSWYEYWGQGTQVTVS
B5: LaG-17 (VHH)
VHH: DVQLVESGGGLVQAGGSLRLSCAASGRTISMAAMSWFRQAPGKEREFVAGISRSAGSAVHADSVKGRFTISRDNTKNTLYLQMNSLKAEDTAVYYCAVRTSGFFGSIPRTGTAFDYWGQGTQVTVS
B6: LaG-19 (VHH)
VHH: QVQLVESGGGLVQAGGSLRLSCAASGPTGAMAWFRQAPGKEREFVGGISRSGTDTYYVDSVKGRFTIDRDNAKNTVYLQMNSLKPEDTAVYYCAARRSQILFTSRTDYEFWGQGTQVTV
B7: LaG-21 (VHH)
VHH: QVQLVESGGGLVQAGGSLRLSCAASGPTGAMAWFRQAPGMEREFVGGISGSETDTYYADFVKGRLTVDRDNVKNTVDLQMNSLKPEDTAVYYCAARRRVTLFTSRADYDFWGQGTQVTVS
B8: LaG-26 (VHH)
VHH: QVQLVESGGGLVQAGASMRLSCAASGITFSLYHWVWFRQAAGREHEFVAGIIRSGGETLSADSVKDRFIISRDDAKNTLYLQMNMLQPEDTATYYCAATHRADWYSSAFREYIFRGQGTQVTVS
B9: LaG-27 (VHH)
VHH: DVQLVESGGGLVQAGGSLRLSCTASGLTISTYNIGWFRQAPGKEREFVGIIIRNGDTTYYADSVKGRFTISRDNAKNTVYLQMNSVKPADAAVYSCGATVRAGAAAEQYNSYIFRGQGTQVTV
B10: LaG-41 (VHH)
VHH: B6 VHH with Q1D, R50G, G52E, I67V, A72V, S98R, Q99I, I100T, E109D, Q113R
B11: LaG-2 (VHH)
VHH: QVQLVESGGGLVQAGGSLRLSCAASGRTFSNYAMGWFRQAPGKEREFVAAISWTGVSTYYADSVKGRFTISRDNDKNTVYVQMNSLIPEDTAIYYCAAVRARSFSDTYSRVNEYDYWGQGTQVTV

molecular target: GFPuv (Aequorea victoria, UniProt P42212, 15N-labeled)

Row | Binder | binding result
1 | B1 | binds
2 | B2 | binds
3 | B3 | binds
4 | B4 | binds
5 | B5 | binds
6 | B6 | binds
7 | B7 | binds
8 | B8 | binds
9 | B9 | binds
10 | B10 | binds
11 | B11 | binds

From PMC4272012 (Nature methods, 2014)
